Test results: publication PMC10850481, “Structural basis for the oligomerization-facilitated NLRP3 activation” (Nature Communications, 2024)

B1: PYD-deleted human NLRP3 (NLRP3_(ΔPYD)), from the construct FLAG.6His.MBP.TEV.CfaC.NLRP3_130.K131F.M132N-1036 (domain or fragment, UniProt Q96P20 130-1036, looked up)
chain: CFNKKDYRKKYRKYVRSRFQCIEDRNARLGESVSLNKRYTRLRLIKEHRSQQEREQELLAIGKTKTCESPVSPIKMELLFDPDDEHSEPVHTVVFQGAAGIGKTILARKMMLDWASGTLYQDRFDYLFYIHCREVSLVTQRSLGDLIMSCCPDPNPPIHKIVRKPSRILFLMDGFDELQGAFDEHIGPLCTDWQKAERGDILLSSLIRKKLLPEASLLITTRPVALEKLQHLLDHPRHVEILGFSEAKRKEYFFKYFSDEAQARAAFSLIQENEVLFTMCFIPLVCWIVCTGLKQQMESGKSLAQTSKTTTAVYVFFLSSLLQPRGGSQEHGLCAHLWGLCSLAADGIWNQKILFEESDLRNHGLQKADVSAFLRMNLFQKEVDCEKFYSFIHMTFQEFFAAMYYLLEEEKEGRTNVPGSRLKLPSRDVTVLLENYGKFEKGYLIFVVRFLFGLVNQERTSYLEKKLSCKISQQIRLELLKWIEVKAKAKKLQIQPSQLELFYCLYEMQEEDFVQRAMDYFPKIEINLSTRMDHMVSSFCIENCHRVESLSLGFLHNMPKEEEEEEKEGRHLDMVQCVLPSSSHAACSHGLVNSHLTSSFCRGLFSVLSTSQSLTELDLSDNSLGDPGMRVLCETLQHPGCNIRRLWLGRCGLSHECCFDISLVLSSNQKLVELDLSDNALGDFGIRLLCVGLKHLLCNLKKLWLVSCCLTSACCQDLASVLSTSHSLTRLYVGENALGDSGVAILCEKAKNPQCNLQKLGLVNSGLTSVCCSALSSVLSTNQNLTHLYLRGNTLGDKGIKLLCEGLLHPDCKLQVLELDNCNLTSHCCWDLSTLLTSSQSLRKLSLGNNDLGDLGVMMFCEVLKQQSCLLQNLGLSEMYFNYETKSALETLQEEKPELTVVFEPSW
notes: human NLRP3 (UniProt Q96P20), residues 130-1036 (NACHT and LRR, PYD deleted) with K131F and M132N next to the CfaC intein fragment; The same protomer forms an octamer (with ATP, no MCC950), a hexamer (with ATP and MCC950) and a back-to-back dimer (with NEK7, ATP and MCC950); The second construct, MBP.TEV.NLRP3_130_1036, was used only for the ATPase and nanoDSF assays; also called …
B2: human NEK7 with kinase mutations K63M/K64M (NEK7_(K63M/K64M)) (enzyme)
chain: not shown
notes: human NEK7 (UniProt Q8TDX7) with kinase mutations K63M/K64M; also called NIMA-related kinase 7; 6His.SUMO.NEK7_(K63M/K64M); source: E. coli BL21(DE3), purified (HisPur Ni resin, Ulp1 cleavage, HisTrap flow-through, Superdex 200); not shown: His6, N-terminal, cleaved; SUMO, N-terminal, cleaved

Key:
[1] = biological target: the molecule itself; assay: cryo-EM structure; NLRP3_(ΔPYD) with ATP and MCC950; D3 symmetry imposed; closed hexamer, seen in the dataset without NEK7 and as one of two populations in the dataset with NEK7
[2] = biological target: the molecule itself; assay: cryo-EM structure; NLRP3_(ΔPYD) with ATP, MCC950 (10 fold molar excess) and NEK7_(K63M/K64M) (2 fold molar excess); Superdex 200 peak fractions; C2 symmetry imposed; closed NEK7/NLRP3 dimer
[3] = biological target: the molecule itself; assay: cryo-EM structure; NLRP3_(ΔPYD) with ATP, without MCC950; applied to grids immediately after SEC (Superose 6, 25 mM HEPES pH 7.4, 0.4 M NaCl, 0.2% CHAPS, 0.2 mM TCEP); D2 symmetry imposed; open octamer
[4] = biological target: B1; assay: cryo-EM structure; NLRP3_(ΔPYD) with ATP, MCC950 (10 fold molar excess) and NEK7_(K63M/K64M) (2 fold molar excess); Superdex 200 peak fractions; C2 symmetry imposed; closed NEK7/NLRP3 dimer; settings: both partners purified

Binder	stoichiometry N [1]	stoichiometry N [2]	stoichiometry N [3]	binding result [4]
B1	6	2	8	–
B2	–	–	–	binds
